Reference: US20220088148A1 (HANMI PHARM, published 2022)
Bridges are numbered along the chain shown (N, C = ends). Where no end group is shown, it is not given here. [ ]: non-standard residue; d: D form. The star is where a group is joined. Acetyl(2-(4-imidazolyl)) = O=C(Cc1c[nH]cn1)*; Aib = CC(C)(N)C(=O)O

T1: human GIP receptor (human, UniProt P48546 22-466)
T1 sequence (looked up): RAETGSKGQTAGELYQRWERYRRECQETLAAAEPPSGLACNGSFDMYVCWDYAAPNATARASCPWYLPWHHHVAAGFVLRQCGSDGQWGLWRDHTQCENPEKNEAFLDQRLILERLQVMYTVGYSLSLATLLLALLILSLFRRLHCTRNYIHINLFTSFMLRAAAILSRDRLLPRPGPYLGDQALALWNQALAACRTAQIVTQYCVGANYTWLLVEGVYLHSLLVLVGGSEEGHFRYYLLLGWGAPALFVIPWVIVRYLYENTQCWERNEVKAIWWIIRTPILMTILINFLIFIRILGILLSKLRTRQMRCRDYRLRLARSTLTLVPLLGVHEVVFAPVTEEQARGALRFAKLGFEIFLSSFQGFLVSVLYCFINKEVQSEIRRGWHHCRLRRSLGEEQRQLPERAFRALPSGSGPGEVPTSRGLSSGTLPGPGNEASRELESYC

B1: triple agonist of SEQ ID NO: 86 (peptide)
peptide: {Acetyl(2-(4-imidazolyl))}-[Aib]QGTFTSDYSKYLDEKRQKEFVNWLLAQC
modifications: bridge 15-19
B2: triple agonist of SEQ ID NO: 91 (peptide)
peptide: {Acetyl(2-(4-imidazolyl))}-[Aib]EGTFTSDYSIAMDEIHQKDFVDWLLAEKC
modifications: bridge 15-19
B3: triple agonist of SEQ ID NO: 88 (peptide)
peptide: {Acetyl(2-(4-imidazolyl))}-[Aib]QGTFTSDYSKYLDEKRQKEFVQWLLNTKC
modifications: bridge 15-19
B4: triple agonist of SEQ ID NO: 78 (peptide)
peptide: H[Aib]QGTFTSDYSKYLDEKRQKEFVQWLLDTKC
modifications: bridge 16-20
B5: triple agonist of SEQ ID NO: 94 (peptide)
peptide: {Acetyl(2-(4-imidazolyl))}-[Aib]QGTFTSDYSIAMDEIHQKDFVNWLLNTKC
modifications: bridge 15-19
B6: triple agonist of SEQ ID NO: 87 (peptide)
peptide: {Acetyl(2-(4-imidazolyl))}-[Aib]QGTFTSDYSIAMDEIHQKDFVNWLLNTC
modifications: bridge 15-19
B7: triple agonist of SEQ ID NO: 89 (peptide)
peptide: {Acetyl(2-(4-imidazolyl))}-[Aib]QGTFTSDYSKYLDEKRQKEFVQWLLDTKC
modifications: bridge 15-19
B8: triple agonist of SEQ ID NO: 95 (peptide)
peptide: Y[Aib]QGTFTSDYSKYLDEKRAKEFVQWLLCHHPSSGQPPPS
modifications: bridge 16-20
B9: triple agonist of SEQ ID NO: 81 (peptide)
peptide: {Acetyl(2-(4-imidazolyl))}-[Aib]QGTFTSDYSKYLDEKRQKEFVQWLLNTC
modifications: bridge 15-19
B10: triple agonist of SEQ ID NO: 79 (peptide)
peptide: H[Aib]EGTFTSDYSIAMDEIHQKDFVNWLLAQKC
modifications: bridge 16-20
B11: triple agonist of SEQ ID NO: 73 (peptide)
peptide: [Acetyl(2-(4-imidazolyl))][Aib]QGTFTSDYSKYLDECRAKEFVQWLLDHHPSSGQPPPS
modifications: bridge 16-20; ends not checked
B12: triple agonist of SEQ ID NO: 82 (peptide)
peptide: {Acetyl(2-(4-imidazolyl))}-[Aib]QGTFTSDYSKYLDEKRQKEFVQWLLDTC
modifications: bridge 15-19
B13: triple agonist of SEQ ID NO: 84 (peptide)
peptide: {Acetyl(2-(4-imidazolyl))}-[Aib]EGTFTSDYSIAMDEIHQKDFVDWLLAEC
modifications: bridge 15-19
B14: triple agonist of SEQ ID NO: 72 (peptide)
peptide: Y[Aib]QGTFTSDCSKYLDERAAKDFVQWLLDHHPSSGQPPPS
modifications: bridge 16-20; ends not checked
B15: triple agonist of SEQ ID NO: 80 (peptide)
peptide: H[Aib]EGTFTSDYSIAMDEIHQKDFVDWLLAEKC
modifications: bridge 16-20
B16: triple agonist of SEQ ID NO: 76 (peptide)
peptide: Y[Aib]QGTFTSDYSKYLDEKRAKDFVQWLLDHHPSSGQPPPSC
modifications: bridge 16-20
B17: triple agonist of SEQ ID NO: 75 (peptide)
peptide: Y[Aib]QGTFTSDYSKYLDEKAAKEFVQWLLDHHPSSGQPPPSC
modifications: bridge 16-20
B18: triple agonist of SEQ ID NO: 77 (peptide)
peptide: Y[Aib]QGTFTSDYSKYLDEKAAKDFVQWLLDHHPSSGQPPPSC
modifications: bridge 16-20
B19: triple agonist of SEQ ID NO: 71 (peptide)
peptide: Y[Aib]QGTFTSDYSKYLDERACKDFVQWLLDHHPSSGQPPPS
modifications: bridge 16-20; ends not checked
B20: triple agonist of SEQ ID NO: 74 (peptide)
peptide: {Acetyl(2-(4-imidazolyl))}-[Aib]QGTFTSDYSKCLDEKRAKEFVQWLLDHHPSSGQPPPS
modifications: bridge 15-19
B21: triple agonist of SEQ ID NO: 92 (peptide)
peptide: {Acetyl(2-(4-imidazolyl))}-[Aib]QGTFTSDYSIAMDEIHQKDFVNWLLAQKC
modifications: bridge 15-19
B22: triple agonist of SEQ ID NO: 70 (peptide)
peptide: Y[Aib]QGTFTSDYSKCLDEKRAKDFVQWLLDHHPSSGQPPPS
modifications: bridge 16-20; ends not checked
B23: triple agonist of SEQ ID NO: 93 (peptide)
peptide: {Acetyl(2-(4-imidazolyl))}-[Aib]QGTFTSDYSKYLDEKRQKEFVNWLLAQKC
modifications: bridge 15-19
B24: triple agonist of SEQ ID NO: 10 (peptide)
peptide: H[Aib]QGTFTSDVSKYLDGQAAQEFVAWLLAGGGPSSGAPPPSC
B25: triple agonist of SEQ ID NO: 8 (peptide)
peptide: H[Aib]QGTFTSDVSKYLDGQAAQEFVAWLLKGC
B26: triple agonist of SEQ ID NO: 96 (peptide)
peptide: Y[Aib]QGTFTSDYSKYLDEKRAKEFVQWLLDHCPSSGQPPPS
modifications: bridge 16-20
B27: triple agonist of SEQ ID NO: 83 (peptide)
peptide: [Acetyl(2-(4-imidazolyl))][Aib]EGTFTSDYSIAMDEIHQKDFVNWLLAQC
modifications: bridge 16-20
B28: triple agonist of SEQ ID NO: 85 (peptide)
peptide: [Acetyl(2-(4-imidazolyl))][Aib]QGTFTSDYSIAMDEIHQKDFVNWLLAQC
modifications: bridge 16-20
B29: triple agonist of SEQ ID NO: 90 (peptide)
peptide: {Acetyl(2-(4-imidazolyl))}-[Aib]EGTFTSDYSIAMDEIHQKDFVNWLLAQKC
modifications: bridge 15-19
B30: triple agonist of SEQ ID NO: 9 (peptide)
peptide: H[Aib]QGTFTSDVSKYLDGQAAQEFVAWLLAGC

Key:
Assay in all cases: cell-based or functional assay
human GCG receptor = human GCG receptor (human, UniProt P47871 26-477)
human GLP-1 receptor = human GLP-1 receptor (human, UniProt P43220 24-463)
human GIP receptor = target: T1, human GIP receptor

human GCG receptor, sequence (P47871 26-477): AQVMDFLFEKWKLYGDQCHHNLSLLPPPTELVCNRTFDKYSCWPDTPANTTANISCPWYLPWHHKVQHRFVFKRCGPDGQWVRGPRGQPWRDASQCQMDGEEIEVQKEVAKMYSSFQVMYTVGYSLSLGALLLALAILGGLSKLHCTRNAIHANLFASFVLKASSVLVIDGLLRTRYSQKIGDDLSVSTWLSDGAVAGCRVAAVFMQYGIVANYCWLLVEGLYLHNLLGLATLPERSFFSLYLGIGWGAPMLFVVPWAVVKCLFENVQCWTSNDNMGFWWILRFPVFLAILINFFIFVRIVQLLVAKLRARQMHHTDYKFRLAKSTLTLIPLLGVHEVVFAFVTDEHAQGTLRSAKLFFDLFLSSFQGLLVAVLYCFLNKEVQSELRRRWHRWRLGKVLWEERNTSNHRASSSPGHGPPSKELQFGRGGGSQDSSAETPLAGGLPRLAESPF

| Binder | In vitro activity (%) vs. Glucagon, cAMP EC50 (human GCG receptor) [%] | In vitro activity (%) vs. GLP-1, cAMP EC50 (human GLP-1 receptor) [%] | In vitro activity (%) vs. GIP, cAMP EC50 (human GIP receptor) [%] |
| --- | --- | --- | --- |
| B1 | 0.4 | 28.4 | 0.2 |
| B2 | 16.8 | 31.9 | 0.3 |
| B3 | 0.3 | 9.6 | < 0.1 |
| B4 | 14 | 51 | 0.12 |
| B5 | < 0.1 | 0.5 | < 0.1 |
| B6 | < 0.1 | 0.9 | < 0.1 |
| B7 | 0.7 | 7.1 | < 0.1 |
| B8 | 0.4 | 2.1 | < 0.1 |
| B9 | 0.3 | 7.8 | < 0.1 |
| B10 | 4.9 | 41.5 | 1.4 |
| B11 | 5.4 | 22.6 | 3 |
| B12 | 1.1 | 9.5 | < 0.1 |
| B13 | < 0.1 | 4.2 | < 0.1 |
| B14 | 1 | 11.5 | 1.6 |
| B15 | 0 | 8.1 | 0.1 |
| B16 | 47.6 | 10.3 | 11.7 |
| B17 | 8.5 | 35.1 | 18 |
| B18 | 12.2 | 38.7 | 35.5 |
| B19 | 12.7 | 90.1 | 94.7 |
| B20 | 0.9 | 12.9 | 1 |
| B21 | < 0.1 | 0.8 | 0.4 |
| B22 | 71.3 | 15.1 | 64.4 |
| B23 | 0.3 | 5.7 | 0.7 |
| B24 | < 0.1 | 46 | < 0.1 |
| B25 | 0.1 | 14.2 | < 0.1 |
| B26 | 195 | 34.4 | 5.2 |
| B27 | 1.3 | 47.3 | 0.4 |
| B28 | < 0.1 | 4.3 | 0.3 |
| B29 | < 0.1 | 7.4 | < 0.1 |
| B30 | 0.13 | 32.1 | < 0.1 |
